Results published in PMC9253567, “The Role of ZAP and TRIM25 RNA Binding in Restricting Viral Translation” (Frontiers in Cellular and Infection Microbiology, 2022).

Experiments:
[1] = biological target: T1, myc-tagged TRIM25 WT (tripartite motif-containing protein 25) (UniProt Q14258 1-630); experiment: cell-based or functional assay
[2] = biological target: T1, myc-tagged TRIM25 WT (tripartite …); experiment: co-IP; myc IP (anti-myc beads) of myc-TRIM25 WT from lysates of ZAP KO 293T cells co-transfected with FLAG-ZAPS or FLAG-ZAPL WT or mutants; FLAG-ZAP detected by immunoblot; FLAG IP buffer (100 mM Tris-HCl 8.0, 150 mM NaCl, 5 mM EDTA, 1 mM DTT, 5% glycerol, 0.1% NP-40), 4°C, 45 min; FLAG IP band divided by myc IP band (ImageJ); settings: partners not purified

T1 sequence (Q14258 whole entry): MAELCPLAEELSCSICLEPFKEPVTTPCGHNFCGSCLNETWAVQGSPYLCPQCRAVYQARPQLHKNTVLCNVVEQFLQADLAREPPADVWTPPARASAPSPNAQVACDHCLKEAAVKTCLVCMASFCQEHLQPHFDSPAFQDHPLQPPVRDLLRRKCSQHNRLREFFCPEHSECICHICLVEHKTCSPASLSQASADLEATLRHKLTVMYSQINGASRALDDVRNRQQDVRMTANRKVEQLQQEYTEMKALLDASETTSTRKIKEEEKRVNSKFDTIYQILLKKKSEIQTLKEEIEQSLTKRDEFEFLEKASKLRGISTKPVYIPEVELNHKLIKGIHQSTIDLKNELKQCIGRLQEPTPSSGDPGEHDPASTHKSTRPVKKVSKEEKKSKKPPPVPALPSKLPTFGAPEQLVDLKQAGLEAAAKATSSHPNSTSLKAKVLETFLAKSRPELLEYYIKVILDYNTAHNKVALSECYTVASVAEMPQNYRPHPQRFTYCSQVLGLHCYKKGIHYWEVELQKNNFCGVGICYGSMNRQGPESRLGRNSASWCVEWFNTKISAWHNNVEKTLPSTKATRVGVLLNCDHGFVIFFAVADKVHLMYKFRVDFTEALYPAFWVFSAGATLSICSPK

B1: FLAG-tagged ZAPL H191R (ZnF 4 mutant) (natural protein, human, UniProt Q7Z2W4-1 1-902, looked up)
chain: MADPEVCCFITKILCAHGGRMALDALLQEIALSEPQLCEVLQVAGPDRFVVLETGGEAGITRSVVATTRARVCRRKYCQRPCDNLHLCKLNLLGRCNYSQSERNLCKYSHEVLSEENFKVLKNHELSGLNKEELAVLLLQSDPFFMPEICKSYKGEGRQQICNQQPPCSRLHICDHFTRGNCRFPNCLRSRNLMDRKVLAIMREHGLNPDVVQNIQDICNSKHMQKNPPGPRAPSSHRRNMAYRARSKSRDRFFQGSQEFLASASASAERSCTPSPDQISHRASLEDAPVDDLTRKFTYLGSQDRARPPSGSSKATDLGGTSQAGTSQRFLENGSQEDLLHGNPGSTYLASNSTSAPNWKSLTSWTNDQGARRKTVFSPTLPAARSSLGSLQTPEAVTTRKGTGLLSSDYRIINGKSGTQDIQPGPLFNNNADGVATDITSTRSLNYKSTSSGHREISSPRIQDAGPASRDVQATGRIADDADPRVALVNDSLSDVTSTTSSRVDDHDSEEICLDHLCKGCPLNGSCSKVHFHLPYRWQMLIGKTWTDFEHMETIEKGYCNPGIHLCSVGSYTINFRVMSCDSFPIRRLSTPSSVTKPANSVFTTKWIWYWKNESGTWIQYGEEKDKRKNSNVDSSYLESLYQSCPRGVVPFQAGSRNYELSFQGMIQTNIASKTQKDVIRRPTFVPQWYVQQMKRGPDHQPAKTSSVSLTATFRPQEDFCFLSSKKYKLSEIHHLHPEYVRVSEHFKASMKNFKIEKIKKIENSELLDKFTWKKSQMKEEGKLLFYATSRAYVESICSNNFDSFLHETHENKYGKGIYFAKDAIYSHKNCPYDAKNVVMFVAQVLVGKFTEGNITYTSPPPQFDSCVDTRSNPSVFVIFQKDQVYPQYVIEYTEDKACVIS
notes: zinc finger antiviral protein (ZAP), long isoform ZAPL, cloned from pTRIP-TagRFP-hZAPL; source: ZAP KO 293T cells, transfected (pcDNA3.1-3XFLAG), in lysate; not shown: 3XFLAG, N-terminal, kept
- JEV translation inhibition: fold inhibition of Renilla luciferase from a replication-defective JEV replicon, relative to empty plasmid, ZAP KO 293T cells, 4 h after replicon transfection [1]: 9.05 fold inhibition relative to empty plasmid transfection
- ZAP-TRIM25 interaction (co-IP, FLAG-ZAP band over myc-TRIM25 band, ImageJ) [2]: 0.899
